In publication PMC10899635 (2024):

B1: Nb27 (VHH)
VHH: QVQLQESGGGLVQPGGSLRLSCTTSRSILSIYAMGWYRQAPGKQRELVAVITSGGSTYYADSVKGRFTISRDNAKNTLYLQMNSLKPEDTALYYCARGGYGTSPQPSWGQGTQVTVSS
B2: Nb39 (VHH)
VHH: QVQLQESGGGLVQPGGSLRLSCTASGSIFSGYAMGWYRQAPGKQRELVAGITSGGSTIYAGSVKGRFTISRDNAKNTVYLQMNSLKPEDTAVYYCKNGTYYSARDYWGQGTQVTVSS
B3: recombinant Q586B2 protein (natural protein)
chain: MPNLVVTATFSPPAFSIVGSPLREDTIKHMEERIPTVLSTALSRSREPSYFVHSKNPESWKMELSQHFCDELHRAAVSLVIIECLDAEGWVLRTSSSSQDTNEGKCCIKFYFTRS

Columns and labels:
[1] = biological target: B3

B1
Kd [1]: 52 nM

B2
Kd [1]: 49.9 nM

B3
Kd (Nb36): 11.3 nM | Kd (Nb34): 36.7 nM
